# T1: human LRRC15 extracellular domain with C-terminal His tag (human, UniProt Q8TF66 22-538)
# T1 construct: Recombinant, made in HEK293; the entry holds the extracellular domain and the His tag; SPR analyte; also called TPP-1545; hLRRC15 CT-His
# T1 sequence: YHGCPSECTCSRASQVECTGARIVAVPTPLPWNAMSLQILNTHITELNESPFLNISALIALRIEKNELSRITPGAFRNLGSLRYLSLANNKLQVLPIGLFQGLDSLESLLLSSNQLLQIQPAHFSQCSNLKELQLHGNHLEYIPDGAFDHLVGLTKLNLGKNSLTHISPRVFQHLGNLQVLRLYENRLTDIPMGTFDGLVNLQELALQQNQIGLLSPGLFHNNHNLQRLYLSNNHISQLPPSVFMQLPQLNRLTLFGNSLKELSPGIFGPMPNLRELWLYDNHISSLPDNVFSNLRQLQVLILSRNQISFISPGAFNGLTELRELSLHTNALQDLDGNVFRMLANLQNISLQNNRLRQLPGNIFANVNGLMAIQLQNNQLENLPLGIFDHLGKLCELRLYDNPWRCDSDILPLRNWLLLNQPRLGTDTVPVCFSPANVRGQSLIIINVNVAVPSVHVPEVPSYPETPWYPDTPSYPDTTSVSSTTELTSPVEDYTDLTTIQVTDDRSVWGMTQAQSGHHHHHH
# T2: cynomolgus (Macaca fascicularis) LRRC15 extracellular domain with C-terminal His tag (cynomolgus monkey (Macaca fascicularis), UniProt Q8TF66 22-538 (human entry))
# T2 construct: Recombinant, made in HEK293; the entry holds the extracellular domain and the His tag; SPR analyte; also called TPP-9046
# T2 chain: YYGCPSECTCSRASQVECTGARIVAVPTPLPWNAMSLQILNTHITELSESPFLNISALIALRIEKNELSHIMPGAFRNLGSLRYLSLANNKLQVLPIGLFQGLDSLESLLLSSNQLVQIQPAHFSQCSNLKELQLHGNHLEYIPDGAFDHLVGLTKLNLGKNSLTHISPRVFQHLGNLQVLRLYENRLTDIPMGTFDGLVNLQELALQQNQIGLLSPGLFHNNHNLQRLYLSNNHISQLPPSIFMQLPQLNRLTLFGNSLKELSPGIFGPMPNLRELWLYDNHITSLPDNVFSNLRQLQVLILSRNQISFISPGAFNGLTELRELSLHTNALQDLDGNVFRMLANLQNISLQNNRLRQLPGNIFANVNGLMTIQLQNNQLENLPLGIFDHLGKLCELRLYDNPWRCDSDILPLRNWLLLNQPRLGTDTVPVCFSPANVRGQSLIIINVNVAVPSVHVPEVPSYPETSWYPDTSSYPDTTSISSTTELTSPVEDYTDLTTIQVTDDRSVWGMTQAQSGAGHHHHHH
# Key:
# [1] = target: T1, human LRRC15 extracellular domain with …; assay: SPR Biacore T200, antibody captured, LRRC15 analyte, 25°C
# Procedure: (§1) To assess if anti-LRRC-15 antibodies show a difference in binding at different temperatures, binding assays were conducted using surface plasmon resonance (SPR). Binding assays were performed on a Biacore T200 instrument at temperatures of 10° C., 20° C., 25° C. and 37° C. with assay buffer HBS EP+, 1 mg/ml BSA (bovine serum albumine), 300 mM NaCl, 0.05% NaN₃. Antibodies were captured via anti-human Fc IgGs covalently amine coupled to a CM5 sensor chip and human LRRC15 was used as an analyte in a concentration series from 1.56-200 nM in multi cycle kinetics mode. Pre-experiments were conducted to have an equal capture level at each temperature. Obtained sensorgrams were fitted to a 1:1 Langmuir binding model to derive kinetic data.
# [2] = target: T1, human LRRC15 extracellular domain with …; assay: SPR thermodynamics (van't Hoff/Eyring), 10-37°C
# Procedure: as §1, with “Thermodynamics help to explain why an interaction is happening and what the driving forces for the interaction are. To” for “To”, “the thermodynamic parameters for anti-LRRC15” for “if anti-LRRC-15”, “antibodies” for “antibodies show a difference in binding at different temperatures,”, “BSA,” for “BSA (bovine serum albumine),”, “NaN3.” for “NaN₃.”, “data. Thermodynamic parameters were obtained using the integrated thermodynamics wizard in the Biacore T200 software. Van′t Hoff and Eyring plots were calculated and plotted and thermodynamic parameters were derived.” for “data.”
# [3] = target: T1, human LRRC15 extracellular domain with …; assay: calculated from SPR kd, 10°C
# Procedure: as §1
# [4] = target: T1, human LRRC15 extracellular domain with …; assay: SPR Biacore T200, antibody captured, LRRC15 analyte, 37°C
# Procedure: as §1
# [5] = target: T2, cynomolgus (Macaca fascicularis) LRRC15 …; assay: SPR (Example 6), overview table, repeats Table 9; head prints [M^-1]
# Procedure: (§2) To assess the binding kinetics and affinity of anti-LRRC15 antibodies as well as their species cross-reactivity profile, binding assays were conducted using surface plasmon resonance (SPR). Binding assays were performed on a Biacore T200 instrument at 25° C. using assay buffer HBS EP+, 1 mg/ml BSA, 300 mM NaCl, 0.05% NaN3. Antibodies were captured via anti-human Fc IgGs covalently amine coupled to a CM5 sensor chip and human, mouse and cynomolgus LRRC15 were used as analytes in a concentration series from 1.56-200 nM in multi cycle kinetics mode. […] Obtained sensorgrams were fitted to a 1:1 Langmuir binding model to derive kinetic data.
# [6] = target: T1, human LRRC15 extracellular domain with …; assay: as above
# Procedure: as §2
# [7] = target: T1, human LRRC15 extracellular domain with …; assay: calculated from SPR kd, 25°C
# Procedure: as §1
Binder,Kd [1],-TΔS [2],ΔG^0 [2],ΔH^0 [2],Complex Half Life [3],Kd [4],Kd [5],Kd [6],Complex Half Life [7]
"TPP-12942 (antibody, human IgG1, kappa, V domains shown, Prior art humanized IgG1 kappa antibody, used as comparator; also called huM25; huM25-hIgG1Kappa) VH: EVQLVQSGAEVKKPGASVKVSCKASGYKFSSYWIEWVKQAPGQGLEWIGEILPGSDTTNYNEKFKDRATFTSDTSINTAYMELSRLRSDDTAVYYCARDRGNYRAWFGYWGQGTLVTVSS VL: DIQMTQSPSSLSASVGDRVTITCRASQDISNYLNWYQQKPGGAVKFLIYYTSRLHSGVPSRFSGSGSGTDYTLTISSLQPEDFATYFCQQGEALPWTFGGGTKVEIKR",21 nM,6.69 kcal/mol,-10.5 kcal/mol,-17 kcal/mol,0.963 h,72 nM,36 nM,25 nM,–
"TPP-14389 (antibody, human IgG1, kappa, V domains shown, also called 13612-rec02-hIgG1Kappa) VH: EVQLLESGGGLVQPGGSLRLSCAASGFTFSGYMMSWVRQAPGKGLEWVSGIYPSPGYTYYADSVKGRFTISRDNSKNTLYLQMNSLRAEDTAVYYCAREKASDLFGSYSEALDYWGQGTLVTVSS VL: DIQMTQSPDSLSASVGDRVTITCRASQDVGSWLAWYQQKPGKAPKLLIFAASSLESGIPSRFSGSGSGTDFTLTISSLQPEDFATYYCQQANGFPLTFGGGTKVEIKR",5.4 nM,19.4 kcal/mol,-11.2 kcal/mol,-31.1 kcal/mol,1.6 h,66 nM,9 nM,5.9 nM,0.148 h

# Continued, values first:
Kd [1],-TΔS [2],ΔG^0 [2],ΔH^0 [2],Complex Half Life [3],Kd [4],Kd [5],Kd [6],Complex Half Life [7],Binder
1.6 nM,10.3 kcal/mol,-12 kcal/mol,-22.2 kcal/mol,14.8 h,9.9 nM,1.8 nM,1.7 nM,2.12 h,"TPP-17078 (antibody, human IgG1, kappa, V domains shown, also called 438H-M308-H05-hIgGkappa) VH: EVQLVQSGAEVKKPGASVKVSCKASGYKFSSYWIEWVKQAPGQGLEWIGEILPGSDTTNYNEKFKDRATFTSDTSINTAYMELSRLRSDDTAVYYCARDRGNYRAWFGYWGQGTLVTVSS VL: DIQMTQSPSSLSASVGDRVTITCRASQSISSYLNWYQQKPGGAPKFLIYYASSLQSGVPSRFSGSGSGTDYTLTISSLQPEDFATYYCQQGFSLPWTFGGGTKVEIKR"
0.88 nM,-1.82 kcal/mol,-12.2 kcal/mol,-10.5 kcal/mol,9.63 h,2.4 nM,0.91 nM,0.96 nM,3.63 h,"TPP-17421 (antibody, human IgG1, kappa, V domains shown, also called 438H-M306-C11-hIgG1Kappa) VH: EVQLVQSGAEVKKPGASVKVSCKASGYKFSSYWIEWVKQAPGQGLEWIGEILPGSDWTNYNEKFKDRATFTSDTSINTAYMELSRLRSDDTAVYYCARDRGNYRAWFQYWGQGTLVTVSS VL: DIQMTQSPSSLSASVGDRVTITCRASQSISSYLNWYQQKPGGAPKFLIYYASSLQSGVPSRFSGSGSGTDYTLTISSLQPEDFATYYCQQGLELPWTFGGGTKVEIKR"

# From patent US20240108766A1 (Bayer, published 2024)
